# Where “and” joins values, the source holds several entries; their conditions need not be identical. Identical values can stand only once.
# Experiments:
# [1] = molecular target: HIV-1 BX08 envelope glycoprotein gp160 expressed from the wild type gene wt.gp160BX08 (HIV-1 BX08); assay: flow cytometry (FACS) on transfected 293 cells, mean of duplicates
# [2] = molecular target: HIV-1 BX08 envelope glycoprotein gp160 expressed from the synthetic gene syn.gp160BX08 (HIV-1 BX08); assay: as above
# [3] = molecular target: HIV-1 BX08 envelope glycoprotein gp160 expressed from the wild type gene wt.gp160BX08 (HIV-1 BX08); assay: flow cytometry (FACS) on transfected 293 cells, PE-labelled rat anti-mouse IgG1 as secondary
# [4] = molecular target: HIV-1 BX08 envelope glycoprotein gp160 expressed from the synthetic gene syn.gp160BX08 (HIV-1 BX08); assay: as above
substance,measurement,setting,value
"mouse monoclonal IgG antibody to HIV gp120 (NEA-9301, NEN Life Science Products Inc., Boston)",mean % of cells stained,[1],11%
same,mean % of cells stained,[2],48%
same,% of cells stained (C: Primary Ab and secondary Ab added),[3],14.4% and 7.51%
same,"% of cells stained, C-A (less control without primary antibody)",[3],11.4% and 5.56%
same,"% of cells stained, C-B (less autofluorescence control)",[3],13% and 5.99%
same,% of cells stained (C: Primary Ab and secondary Ab added),[4],36.9% and 58.4%
same,"% of cells stained, C-A (less control without primary antibody)",[4],34.3% and 55.6%
same,"% of cells stained, C-B (less autofluorescence control)",[4],34.1% and 56.3%
